Values quoted from earlier work as cited in patent US8450118B2, “Method for detecting binding interactions between membrane proteins and analytes in a homogenous assay” (Molecular Sensing, Inc., priority 2009, dated 2013).

Biological target: T1, mouse B1 receptor (Mus musculus, UniProt Q61125)
T1 sequence (Q61125 1-334): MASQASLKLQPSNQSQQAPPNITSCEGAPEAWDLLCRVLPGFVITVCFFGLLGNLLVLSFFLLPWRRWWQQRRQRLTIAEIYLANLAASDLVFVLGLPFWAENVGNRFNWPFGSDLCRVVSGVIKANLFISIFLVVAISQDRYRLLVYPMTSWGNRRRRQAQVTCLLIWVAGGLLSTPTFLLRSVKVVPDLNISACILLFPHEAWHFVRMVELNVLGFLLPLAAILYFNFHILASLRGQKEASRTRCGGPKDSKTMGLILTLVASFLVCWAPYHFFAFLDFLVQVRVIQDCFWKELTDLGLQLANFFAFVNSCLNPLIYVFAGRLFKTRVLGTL

- fold higher affinity for BK(1-8) compared to Lys-BK(1-8): 2-3 fold
Substance: BK(1-8): peptide generated by removal of the C-terminal arginine of bradykinin by carboxypeptidases; selective ligand at the B1 receptor (RPPGFSPF; Bradykinin; UniProt P01042 381-388, looked up, fragment)
